The record followed here is IntAct's records for PubMed 21041660.

To fix the notation:
B1: Cell division control protein 6 homolog (Homo sapiens), Q99741 (parent)
chain: MPQTRSQAQATISFPKRKLSRALNKAKNSSDAKLEPTNVQTVTCSPRVKALPLSPRKRLGDDNLCNTPHLPPCSPPKQGKKENGPPHSHTLKGRRLVFDNQLTIKSPSKRELAKVHQNKILSSVRKSQEITTNSEQRCPLKKESACVRLFKQEGTCYQQAKLVLNTAVPDRLPAREREMDVIRNFLREHICGKKAGSLYLSGAPGTGKTACLSRILQDLKKELKGFKTIMLNCMSLRTAQAVFPAIAQEICQEEVSRPAGKDMMRKLEKHMTAEKGPMIVLVLDEMDQLDSKGQDVLYTLFEWPWLSNSHLVLIGIANTLDLTDRILPRLQAREKCKPQLLNFPPYTRNQIVTILQDRLNQVSRDQVLDNAAVQFCARKVSAVSGDVRKALDVCRRAIEIVESDVKSQTILKPLSECKSPSEPLIPKRVGLIHISQVISEVDGNRMTLSQEGAQDSFPLQQKILVCSLMLLIRQLKIKEVTLGKLYEAYSKVCRKQQVAAVDQSECLSLSGLLEARGILGLKRNKETRLTKVFFKIEEKEIEHALKDKALIGNILATGLP

The variants in the first test derive from B1. Particulars: with cdk1_human CDK1, P06493.
Sequence of cdk1_human CDK1, P06493 (P06493 whole entry, looked up): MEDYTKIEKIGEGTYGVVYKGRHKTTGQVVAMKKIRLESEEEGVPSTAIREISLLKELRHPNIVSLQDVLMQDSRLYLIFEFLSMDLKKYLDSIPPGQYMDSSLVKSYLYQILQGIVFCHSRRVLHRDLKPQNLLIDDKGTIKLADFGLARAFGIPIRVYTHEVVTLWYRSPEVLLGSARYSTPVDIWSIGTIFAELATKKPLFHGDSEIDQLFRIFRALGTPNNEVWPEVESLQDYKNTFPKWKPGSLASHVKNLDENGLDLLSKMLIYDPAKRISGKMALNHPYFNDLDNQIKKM
Regarding MPQTRSQAQATISFPKRKLSRALNKAKNSSDAKLEPVNVQTVTCSPRVKALPLSPRKRLGDDNLCNTPHLPPCSPPKQGKKENGPPHSHTLKGRRLVFDNQLTIKSPSKRELAKVHQNKILSSVRKSQEITTNSEQRCPLKKESACVRLFKQEGTCYQQAKLVLNTAVPDRLPAREREMDVIRNFLREHICGKKAGSLYLSGAPGTGKTACLSRILQDLKKELKGFKTIMLNCMSLRTAQAVFPAIAQEICQEEVSRPAGKDMMRKLEKHMTAEKGPMIVLVLDEMDQLDSKGQDVLYTLFEWPWLSNSHLVLIGIANTLDLTDRILPRLQAREKCKPQLLNFPPYTRNQIVTILQDRLNQVSRDQVLDNAAVQFCARKVSAVSGDVRKALDVCRRAIEIVESDVKSQTILKPLSECKSPSEPLIPKRVGLIHISQVISEVDGNRMTLSQEGAQDSFPLQQKILVCSLMLLIRQLKIKEVTLGKLYEAYSKVCRKQQVAAVDQSECLSLSGLLEARGILGLKRNKETRLTKVFFKIEEKEIEHALKDKALIGNILATGLP [T37V], the “effect of a mutation on the interaction” value is “disrupting interaction”.

Variants of B1 are the subject of a further test. To be noted: with plk1_human PLK1, P53350.
Sequence of plk1_human PLK1, P53350 (P53350 whole entry): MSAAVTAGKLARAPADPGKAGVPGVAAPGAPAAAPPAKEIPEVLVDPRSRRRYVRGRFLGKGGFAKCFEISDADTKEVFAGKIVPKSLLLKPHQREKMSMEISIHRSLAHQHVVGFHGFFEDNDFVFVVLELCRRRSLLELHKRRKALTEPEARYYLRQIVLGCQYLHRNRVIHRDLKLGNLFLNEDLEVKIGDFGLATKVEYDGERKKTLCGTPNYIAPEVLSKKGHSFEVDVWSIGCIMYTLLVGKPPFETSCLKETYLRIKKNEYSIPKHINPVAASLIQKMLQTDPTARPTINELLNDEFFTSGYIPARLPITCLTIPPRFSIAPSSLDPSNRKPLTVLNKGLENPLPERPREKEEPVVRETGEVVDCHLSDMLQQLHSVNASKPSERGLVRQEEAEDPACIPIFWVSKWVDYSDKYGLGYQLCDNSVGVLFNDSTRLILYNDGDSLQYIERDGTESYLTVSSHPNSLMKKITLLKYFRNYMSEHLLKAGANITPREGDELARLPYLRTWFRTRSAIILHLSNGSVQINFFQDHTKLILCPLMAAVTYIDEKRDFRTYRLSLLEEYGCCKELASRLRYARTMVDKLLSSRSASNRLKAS
For the variant MPQTRSQAQATISFPKRKLSRALNKAKNSSDAKLEPVNVQTVTCSPRVKALPLSPRKRLGDDNLCNTPHLPPCSPPKQGKKENGPPHSHTLKGRRLVFDNQLTIKSPSKRELAKVHQNKILSSVRKSQEITTNSEQRCPLKKESACVRLFKQEGTCYQQAKLVLNTAVPDRLPAREREMDVIRNFLREHICGKKAGSLYLSGAPGTGKTACLSRILQDLKKELKGFKTIMLNCMSLRTAQAVFPAIAQEICQEEVSRPAGKDMMRKLEKHMTAEKGPMIVLVLDEMDQLDSKGQDVLYTLFEWPWLSNSHLVLIGIANTLDLTDRILPRLQAREKCKPQLLNFPPYTRNQIVTILQDRLNQVSRDQVLDNAAVQFCARKVSAVSGDVRKALDVCRRAIEIVESDVKSQTILKPLSECKSPSEPLIPKRVGLIHISQVISEVDGNRMTLSQEGAQDSFPLQQKILVCSLMLLIRQLKIKEVTLGKLYEAYSKVCRKQQVAAVDQSECLSLSGLLEARGILGLKRNKETRLTKVFFKIEEKEIEHALKDKALIGNILATGLP [T37V], the “effect of a mutation on the interaction” value is “disrupting interaction”.
